The results in this text go back to US20080050387A1, “Non-Androgen Dependent Roles for Androgen Receptor and Non-Androgen Related Inhibitors of Androgen Receptor” (priority 2003, published 2008).

“Also recorded” adds a separate entry of the source. Read-outs that look alike come from different tables or passages of the source.

For assay [1], the system named is AR. The assay can be described thus: AR transactivation reporter gene assay in H1299 cells with ARA67. The class given is cell-based, human. How it is done:
(§1) H1299 and COS-1 cells were maintained in Dulbecco's modified Eagle's medium (DMEM) (Life Technologies, Inc.) supplemented with 10% heat inactivated fetal bovine serum (FBS). LNCap cells were maintained in RPMI 1640 supplemented with […]. All media contain 100 units penicillin, 100 μg/ml streptomycin and 2 mM L-glutamine. Cells were seeded to a density of 50-60% confluency for transfection. In transfections where H1299 and COS-1 cells were used, the calcium phosphate precipitation method was used as described (Pan H J, et al. 1999. Endocrine 11:321-327) unless otherwise noted. […] In other reporter gene assays, where ligand treatment was required, cell culture media were changed to DMEM containing 10% charcoal-dextran-stripped FBS (CD-FBS) 2 h before transfection. After 16-18 h transfection, cells were treated with medium containing either vehicle or ligands for another 20-24 h and then cells were harvested. With LNCap cells transfection, the cells were treated with fresh RPMI 1640 containing 10% CD-FBS before transfection with SuperFect performed according to the manufacturer's protocol (Qiagen). After transfection, cells were allowed to recover in fresh RPMI 1640 containing 10% CD-FBS for 8-12 h, and then treated with either vehicle or ligands for another 20-24 h before harvesting. Each experiment was repeated at least three times.

In the next assay the target is T1, GR (Homo sapiens, UniProt P04150).
T1 construct: host or cells: H1299
T1 sequence (P04150 1-777): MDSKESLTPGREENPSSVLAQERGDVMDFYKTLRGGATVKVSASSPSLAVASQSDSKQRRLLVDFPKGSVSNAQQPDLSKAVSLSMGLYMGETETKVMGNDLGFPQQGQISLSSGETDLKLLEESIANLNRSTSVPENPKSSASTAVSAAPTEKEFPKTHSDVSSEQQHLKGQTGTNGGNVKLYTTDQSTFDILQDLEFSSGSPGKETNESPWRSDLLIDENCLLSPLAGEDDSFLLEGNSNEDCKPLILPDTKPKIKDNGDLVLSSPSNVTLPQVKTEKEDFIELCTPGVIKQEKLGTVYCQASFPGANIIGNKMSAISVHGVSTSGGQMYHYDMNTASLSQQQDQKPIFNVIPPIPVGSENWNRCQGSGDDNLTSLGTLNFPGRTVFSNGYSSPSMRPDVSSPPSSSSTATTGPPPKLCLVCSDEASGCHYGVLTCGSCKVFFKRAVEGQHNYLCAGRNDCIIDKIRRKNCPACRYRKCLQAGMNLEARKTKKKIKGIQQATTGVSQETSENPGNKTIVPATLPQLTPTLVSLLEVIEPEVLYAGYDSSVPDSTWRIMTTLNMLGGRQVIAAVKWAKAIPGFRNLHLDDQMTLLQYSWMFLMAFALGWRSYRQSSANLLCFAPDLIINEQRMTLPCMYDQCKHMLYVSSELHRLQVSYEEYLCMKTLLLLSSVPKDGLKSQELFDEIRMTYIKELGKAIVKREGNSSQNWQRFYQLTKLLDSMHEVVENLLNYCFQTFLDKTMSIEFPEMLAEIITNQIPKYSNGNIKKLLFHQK
The assay can be described thus: GR transactivation reporter gene assay in H1299 cells with ARA67. The assay is classed as cell-based. Conditions: 500 ng pSG5-ARA67, MMTV-Luc, cognate ligand. The procedure:
as §1

In a further assay the test system is ER. The assay can be described thus: ER transactivation reporter gene assay in H1299 cells with ARA67. Particulars: 500 ng pSG5-ARA67, ERE-Luc, cognate ligand. The class given is cell-based. How it is done: as §1
The test system of the next assay is AR (ARN, ARDBD, ARLBD). The assay can be described thus: GST pull-down assay ARA67 / AR. The assay is classed as binding, human. How it is done: GST-ARN, GST-ARA67 fusion proteins, and GST control protein were expressed in BL21 (DE3)pLysS bacteria strain (Stratagene) and purified with glutathione-Sepharose beads as instructed by the manufacturer (Amersham Pharmacia). In vitro [^35S]methionine-labeled AR, ARN, AR DBD, AR LBD and ARA67 proteins were generated using TNT-coupled Reticulocyte Lysate Systems (Promega). For in vitro interaction, mixtures of glutathione beads bound GST fusion proteins and 5 μl [^35S]methionine-labeled input proteins in 100 μl interaction buffer (20 mM Tris/pH8.0, 60 mM NaCl, 6 mM MgCl2, 1 mM EDTA, 0.05% Nonidet P-40, 1 mM DTT, 8% glycerol, 1 mM PMSF) were incubated in the presence or absence of 10 μM dihydrotestosterone (DHT) on a rotating disk at 4° C. for 2 h. After washing with NETN buffer (20 mM Tris/pH8.0, 100 mM NaCl, 6 mM MgCl2, 1 mM EDTA, 0.5% Nonidet P-40, 1 mM DTT, 8% glycerol, 1 mM PMSF) four times, the bound proteins were separated on 8-13% SDS-PAGE and visualized by autoradiography.

The subject of a further assay is AR N/C interaction. The assay can be described thus: AR N/C interaction, mammalian two-hybrid assay in COS-1 cells. The class given is cell-based, human. Conditions: 10 nM DHT. How it is done: as §1
Assay [2] has as its system AR. The assay can be described thus: AR protein level in H1299 cells (Western blot). The class given is cell-based, human. Particulars: pSG5-AR and pKH3-ARA67 1 to 6. The procedure: Protein samples collected from the cells were separated on 8% SDS-PAGE and transferred to nitrocellulose membranes. Membranes were blocked with 5% nonfat milk in TBST buffer (150 mM NaCl, 10 mM Tris/pH8.0, and 0.5% Tween-20) at room temperature for 1 h. Then the membranes were immunoblotted with primary antibodies for 2 h at room temperature or overnight at 4° C., followed by incubation with secondary antibodies for 1 h at room temperature. Blots were developed with the AP color developing reagents (Bio-Rad).

Chain of AR (P10275 with tags, fused parts or gaps DEL79-80/DUP473-473): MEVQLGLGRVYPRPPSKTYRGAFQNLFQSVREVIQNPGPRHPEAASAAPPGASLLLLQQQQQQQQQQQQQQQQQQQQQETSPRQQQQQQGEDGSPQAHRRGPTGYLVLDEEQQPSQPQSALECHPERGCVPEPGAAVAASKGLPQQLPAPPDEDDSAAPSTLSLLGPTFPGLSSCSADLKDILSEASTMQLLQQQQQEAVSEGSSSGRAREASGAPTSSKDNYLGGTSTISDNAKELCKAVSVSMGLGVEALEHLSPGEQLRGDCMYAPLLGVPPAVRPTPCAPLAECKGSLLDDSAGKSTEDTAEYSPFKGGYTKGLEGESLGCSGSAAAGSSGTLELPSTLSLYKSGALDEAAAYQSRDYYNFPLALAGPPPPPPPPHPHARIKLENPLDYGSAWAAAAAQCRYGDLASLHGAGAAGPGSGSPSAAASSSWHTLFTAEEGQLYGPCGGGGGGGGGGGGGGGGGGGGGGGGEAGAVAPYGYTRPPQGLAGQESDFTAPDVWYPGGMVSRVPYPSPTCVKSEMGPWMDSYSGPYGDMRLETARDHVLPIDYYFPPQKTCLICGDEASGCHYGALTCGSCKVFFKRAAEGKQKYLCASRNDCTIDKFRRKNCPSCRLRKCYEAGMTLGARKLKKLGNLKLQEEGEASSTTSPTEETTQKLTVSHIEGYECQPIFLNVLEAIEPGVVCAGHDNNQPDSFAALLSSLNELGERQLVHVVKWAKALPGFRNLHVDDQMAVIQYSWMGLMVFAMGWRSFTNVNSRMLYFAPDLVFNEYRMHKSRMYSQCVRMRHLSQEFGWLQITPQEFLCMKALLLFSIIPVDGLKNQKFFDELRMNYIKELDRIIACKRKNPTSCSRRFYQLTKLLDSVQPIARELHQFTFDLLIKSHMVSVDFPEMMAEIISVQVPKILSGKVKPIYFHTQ
Chain of AR N/C interaction (P10275 552-919 limits assumed): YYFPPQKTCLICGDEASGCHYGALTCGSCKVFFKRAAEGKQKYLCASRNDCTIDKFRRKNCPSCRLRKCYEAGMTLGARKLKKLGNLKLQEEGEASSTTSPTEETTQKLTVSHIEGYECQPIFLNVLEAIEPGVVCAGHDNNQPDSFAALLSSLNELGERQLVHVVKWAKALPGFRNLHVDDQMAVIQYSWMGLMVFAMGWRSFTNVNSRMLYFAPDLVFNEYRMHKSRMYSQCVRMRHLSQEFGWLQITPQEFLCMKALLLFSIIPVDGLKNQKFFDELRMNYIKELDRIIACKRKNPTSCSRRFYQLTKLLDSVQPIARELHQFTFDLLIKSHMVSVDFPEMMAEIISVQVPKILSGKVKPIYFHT
Chain of AR N/C interaction (P10275 1-559 partner limits assumed): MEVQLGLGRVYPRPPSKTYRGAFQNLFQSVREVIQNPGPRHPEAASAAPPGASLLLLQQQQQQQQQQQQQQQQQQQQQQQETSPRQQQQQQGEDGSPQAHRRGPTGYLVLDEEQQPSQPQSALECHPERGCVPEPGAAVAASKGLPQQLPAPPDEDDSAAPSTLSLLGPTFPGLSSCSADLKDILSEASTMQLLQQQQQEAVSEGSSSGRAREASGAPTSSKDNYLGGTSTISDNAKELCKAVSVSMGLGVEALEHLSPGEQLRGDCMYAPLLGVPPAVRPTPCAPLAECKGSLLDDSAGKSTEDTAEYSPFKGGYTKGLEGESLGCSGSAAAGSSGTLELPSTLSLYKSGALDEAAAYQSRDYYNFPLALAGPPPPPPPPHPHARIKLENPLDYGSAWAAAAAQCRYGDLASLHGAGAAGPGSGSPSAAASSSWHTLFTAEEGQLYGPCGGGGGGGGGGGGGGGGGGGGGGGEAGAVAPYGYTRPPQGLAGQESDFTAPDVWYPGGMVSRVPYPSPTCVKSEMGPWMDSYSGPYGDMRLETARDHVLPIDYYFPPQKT

B1: ARA67: AR N-terminal interacting protein of 585 amino acids (SEQ ID NO:1), matches PAT1; functions as a repressor of AR (protein)
chain: MAAVELEWIPETLYNTAISAVVDNYIRSRRDIRSLPENIQFDVYYKLYQQGRLCQLGSEFCELEVFAKVLRALDKRHLLHHCFQALMDHGVKVASVLAYSFSRRCSYIAESDAAVKEKAIQVGFVLGGFLSDAGWYSDAEKVFLSCLQLCTLHDEMLHWFRAVECCVRLLHVRNGNCKYHLGEETFKLAQTYMDKLSKHGQQANKAALYGELCALLFAKSHYDEAYKWCIEAMKEITAGLPVKVVVDVLRQASKACVVKREFKKAEQLIKHAVYLARDHFGSKHPKYSDTLLDYGFYLLNVDNICQSVAIYQAALDIRQSVFGGKNIHVATAHEDLAYSSYVHQYSSGKFDNALFHAERAIGIITHILPEDHLLLASSKRVKALILEEIAIDCHNKETEQRLLQEAHDLHLSSLQLAKKAFGEFNVQTAKHYGNLGRLYQSMRKFKEAEEMHIKAIQIKEQLLGQEDYEVALSVGHLASLYNYDMNQYENAEKLYLRSIAIGKKLFGEGYSGLEYDYRGLIKLYNSIGNYEKVFEYHNVLSNWNRLRDRQYSVTDALEDVSTSPQSTEEVVQSFLISQNVEGPSC
In the case of B1, the “repression of AR activity relative to PR activity” value in the assay with AR [1] is on record as “approximately 2.5 times”. Moreover, the “suppression on AR activity” value in the assay on AR [1] (H1299 cells, 500 ng pSG5-ARA67, MMTV-Luc, cognate ligand) came to 50%. Besides, the “DHT-induced AR transactivation” value in the assay with AR [1] (H1299 cells, MMTV-Luc and ARE4-Luc, 10 nM DHT) was “suppressed”. Further, the “ARA70N enhanced AR transactivation” value in the assay with AR [1] (H1299 cells, PSA-Luc and ARE4-Luc, 10 nM DHT) is listed as “repressed dose-dependently”. The “suppression on GR” value with GR amounted to 20%. The “effect on ER transactivation” value with ER is recorded as “nearly unaffected; also recorded: little effect”. In the assay on AR (ARN, ARDBD, ARLBD), the “interaction with AR LBD” value is “moderately”, the “interaction with ARDBD” value is reported as “very weakly” and the “interaction with ARN” value was “most strongly”. Further, in the assay with AR (ARN, ARDBD, ARLBD) ([35S]methionine-labeled ARA67), the “interaction with GST-ARN fragment ARN1-140” value is reported as “positive interaction”. Also, the “interaction with ARN” value with AR (ARN, ARDBD, ARLBD) (listed as full length ARA67) is reported as “strong interaction”. In addition, the “interaction with AR, DHT dependence” value with AR (ARN, ARDBD, ARLBD) (presence and absence of 10 μM DHT) is “DHT independent manner”. The “DHT promoted AR N/C interaction” value in the assay with AR N/C interaction is on record as “slightly enhanced”. The AR protein level result in the assay with AR [2] was “slightly increased”.
